# Experimental data published in publication PMC4930772.
# Target: PP2A B56γ1 30-380 (UniProt Q13362)
# Assay: ITC
# [1] = reference: wild type, sites T680
# [2] = reference: wild type, sites S670
# [3] = reference: wild type, sites S676
substance,measurement,setting,value
BubR1 647-720 (from UniProt O60566) 3D (S670D/S676D/T680D),KD,"reference: wild type, sites S670,S676,T680",same; reference 2.91 ± 0.50
BubR1 647-720 (from UniProt O60566) AAAA (E678A/T680A/H681A),KD,[1],weaker; reference 2.91 ± 0.50
BubR1 647-720 (from UniProt O60566) DDT (S670D/S676D),KD,"reference: wild type, sites S670,S676",same; reference 2.91 ± 0.50
BubR1 647-720 (from UniProt O60566) DSD (S670D/T680D),KD,"reference: wild type, sites S670,T680",same; reference 2.91 ± 0.50
BubR1 647-720 (from UniProt O60566) DST (S670D),KD,[2],same; reference 2.91 ± 0.50
BubR1 647-720 (from UniProt O60566) S670A,KD,[2],same; reference 2.91 ± 0.50
BubR1 647-720 (from UniProt O60566) S676A,KD,[3],same; reference 2.91 ± 0.50
BubR1 647-720 (from UniProt O60566) SDD (S676D/T680D),KD,"reference: wild type, sites S676,T680",same; reference 2.91 ± 0.50
BubR1 647-720 (from UniProt O60566) SDT (S676D),KD,[3],same; reference 2.91 ± 0.50
BubR1 647-720 (from UniProt O60566) SSD (T680D),KD,[1],same; reference 2.91 ± 0.50
BubR1 667-681 (from UniProt O60566) B56γ1 R188A,KD,"reference: B56γ1 wild type, sites S670",weaker; reference 0.25 ± 0.06
BubR1 667-681 (from UniProt O60566) pS670 15-mer,KD,"reference: unphosphorylated 15-mer, sites S670",stronger; reference 2.80 ± 0.30
BubR1 667-681 (from UniProt O60566) pS676 15-mer,KD,"reference: unphosphorylated 15-mer, sites S676",stronger; reference 2.80 ± 0.30
BubR1 667-681 (from UniProt O60566) pS676/pT680 15-mer,KD,"reference: pS676 15-mer, sites T680",same; reference 0.69 ± 0.11
same,KD,"reference: unphosphorylated 15-mer, sites S676,T680",stronger; reference 2.80 ± 0.30
